Measurements published in the supplement of paper PMC10567573.

B1: MLL5 (parent)
chain: HDDGYMICCDKCSVWQHIDCMGID
B2: C19orf51 (parent)
chain: FAPQTGARPSETFARFCKSQESAL

Variants of: B1
Test: protein stability index of a GFP-peptide fusion (GPS, HEK-293T) (PSI 1-6); higher = more stable
Settings: c terminus: a fixed tail appended
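Further: lentivirally expressed fusions sorted by FACS into six bins by GFP to DsRed ratio, PSI derived from sequencing read proportions per bin multiplied by bin number.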

Variant	protein stability index
D24I	2.21
D24C	2.68
D24R	1.93
D24Y	1.61
D19M	2
D19T	2.33
D19E	2.57
D19H	2.2
V14R	2.77
V14S	2.77
V14Y	2.12
V14F	1.86
V14K	3.22
V14D	3.37
M6K	2.43
M6T	2.41
M6G	2.4
C8A	3.27
C8H	2.37
D3T	2.41
M21H	2.61
M21Q	2.91
M21K	2.81

Variant	protein stability index
M21L	2.34
K11T	1.81
K11S	2.68
H17M	2.82
H17F	1.65
H17I	1.34
W15S	3.69
D10I	3.54
D10M	2.95
D10C	2.71
S13W	2.37
S13Q	2.59
S13A	1.73
Q16D	2.08
Q16V	2.82
Q16L	2.75
Q16F	2.02
Q16I	1.77
G4R	2.73
C20K	2.06
C20W	2.15
C20M	1.79
C20R	1.97

Variant	protein stability index
C12V	1.93
C12Y	2.91
C12M	2.05
C12Q	2.46
D2V	2.02
D2A	1.76
D2C	1.89
D2H	2.87
D2Q	2.04
D2S	2.16
D2F	2.23
D2T	2.99
I18G	3.5
I18A	2.9
I18L	2.28
I18P	2.94
I18N	2.52
I7Q	3.51
I7K	3.45
I7C	3.79
I7N	3.12
I23S	2.58
I23M	2.36

Variant	protein stability index
I23T	2.85
I23V	2.95
I23R	2.83
Y5Q	3.19
Y5M	2.83
Y5V	2.96
Y5F	1.74
Y5P	2.9
Y5T	3.96
G22D	3.8
G22P	2.39
G22I	2.06
H1Y	3.85
H1E	2.5
H1T	2.19
H1K	2.95
H1V	2.61
C9I	2.1
C9M	1.99
C9F	2.43
C9P	3.03
C9L	2.12
C9G	3.81

Variants of: B2
Test: as above
Settings: c terminus: a fixed tail appended

Variant	protein stability index
E21W	3.29
E21K	1.85
E21I	1.97
E21Q	2.79
E21C	1.97
E21A	2.86
E21G	3
E21H	3.63
E21R	4.11
E21Y	2.22
E21N	1.79
E21D	2.04
E21P	1.88
E21M	2.35
E21F	1.76
E11I	1.72
E11Y	3.29
E11M	3.05
E11T	1.96
E11H	2.47
E11G	1.54
E11K	1.03
E11D	1.85
E11S	3.19
E11N	3.64

Variant	protein stability index
E11A	1.55
E11L	2.27
E11R	2.15
E11F	3.67
E11C	2.86
Q20C	3
Q20R	4.59
Q20F	1.73
Q20N	1.76
Q20H	1.89
Q20V	1.73
Q20I	2.92
Q20Y	2.31
Q20A	2.13
Q20T	3.01
Q20P	2.65
Q20D	2.51
Q20K	1.99
Q20E	2.48
Q20L	1.65
Q20M	1.72
Q20G	1.84
L24D	1.88
L24P	1.23
L24A	3.59

Variant	protein stability index
L24T	2.27
L24E	3.37
L24M	1.56
L24K	2.02
L24G	2.81
L24Y	3.96
L24N	2.58
L24H	1.83
L24R	4.53
L24C	3.32
L24F	3.1
L24Q	1.23
T12E	1.4
T12H	1.87
T12G	1.46
T12F	2.96
T12R	2.39
T12D	1.99
T12M	2.29
T12Y	2.48
T12N	2.66
T12P	1.82
T12L	2.87
T12Q	1.35
T12V	2.77
